{
  "source": "patent US7982017B2",
  "about": "“Antibodies recognizing a carbohydrate containing epitope on CD-43 and CEA expressed on cancer cells and methods using same” (BioAlliance C.V., priority 2007, dated 2011)",
  "molecules": {"B1": {"name": "m5F1: murine antibody 5F1, isotype murine IgG3; heavy chain V region SEQ ID NO:1, light chain V region SEQ ID NO:2 (antibody, V domains shown)", "VH": "MEWSWIFLFLLSGTAGVHSEVQLQQSGPELVKPGASVRMSCTASGYTFTSYVMHWIKQKPGQGLDWIGYINPYNGGTQYNEKFKGKATLTSDKSSSTAYMELSSLTSEDSAVYYCARRTFPYYFDYWGQGTTLTVSS", "VL": "MKLPVRLLVLMFWIPASSSDVLMTQTPLSLPVSLGDQASISCRSSQSILHSNGNTYLEWYLQKPGQSPKLLIYKVSNRFSGVPDRFSGSGSGTDFTLKISRVEAEDLGVYYCFQGSHAPLTFGAGTKLELK", "modifications": "Murine"}, "B2": {"name": "c5F1-v16: chimeric 5F1, heavy chain v16 (hinge C220S), light chain v0[L] (antibody)", "heavy": "EVQLQQSGPELVKPGASVRMSCTASGYTFTSYVMHWIKQKPGQGLDWIGYINPYNGGTQYNEKFKGKATLTSDKSSSTAYMELSSLTSEDSAVYYCARRTFPYYFDYWGQGTTLTVSSASTKGPSVFPLAPSSKSTSGGTAALGCLVKDYFPEPVTVSWNSGALTSGVHTFPAVLQSSGLYSLSSVVTVPSSSLGTQTYICNVNHKPSNTKVDKKVEPKSSDKTHTCPPCPAPELLGGPSVFLFPPKPKDTLMISRTPEVTCVVVDVSHEDPEVKFNWYVDGVEVHNAKTKPREEQYNSTYRVVSVLTVLHQDWLNGKEYKCKVSNKALPAPIEKTISKAKGQPREPQVYTLPPRDELTKNQVSLTCLVKGFYPSDIAVEWESNGQPENNYKTTPPVLDSDGSFFLYSKLTVDKSRWQQGNVFSCSVMHEALHNHYTQKSLSLSPGK", "light": "DVLMTQTPLSLPVSLGDQASISCRSSQSILHSNGNTYLEWYLQKPGQSPKLLIYKVSNRFSGVPDRFSGSGSGTDFTLKISRVEAEDLGVYYCFQGSHAPLTFGAGTKLELKRTVAAPSVFIFPPSDEQLKSGTASVVCLLNNFYPREAKVQWKVDNALQSGNSQESVTEQDSKDSTYSLSSTLTLSKADYEKHKVYACEVTHQGLSSPVTKSFNRGEC"}},
  "key": {"COLO 205 cells [1]": {"test_system": "COLO 205 cells", "assay": "Six-hour apoptosis assay (Annexin V / PI, FACS) in COLO 205", "assay_type": "cell-based", "details": "6 h", "procedure": "(§1) 1.5×10^5 of COLO 205 cells were seeded into the wells of 96-well plates. Aliquots of purified m5F1, c5F1-v0, c5F1-v15, c5F1-v16 and control antibodies at the concentration ranging from 2 to 32 ug/ml were prepared freshly in culture medium and added to each well. The sample treated with m9E10 and h16C11A were used as isotype control. The treated cells were kept at 37° incubator for 6 h before FACS analysis for apoptosis. For cellular apoptosis assay, Annexin V staining was measured using Annexin-V-FITC Apoptosis Detection Kit (Strong Biotech, Cat. No. AVK250) following the manufacturer's instruction. In brief, the treated cells were harvested and resuspended in Annexin V binding buffer containing Annexin V-FITC at room temperature. After 15 min incubation in the dark, the cells were washed twice with 200 μl of Annexin V binding buffer. Before FACS analysis, 0.25 μg/ml of propidium iodide (PI) was added. All flow cytometric analyses were performed on a BD-LSR flow cytometer (Becton Dickinson) using the Cell Quest software. The Annexin VI positive and/or PI positive cells are considered apoptotic cells.\n1.5×10^5 of Colo205 cells were seeded into the wells of 96-well plates. Aliquots of purified m5F1, c5F1, c5F1-v17, c5F1-v24, c5F1-v25 and control antibodies at the concentration ranging from 8 to 32 ug/ml were prepared freshly in culture medium and added to each well. The treated cells were kept at 37° incubator for 6 h before FACS analysis for apoptosis. For cellular apoptosis assay, Annexin V staining was measured using Annexin-V-FITC Apoptosis Detection Kit (Strong Biotech, Cat. No. AV 250) following the manufacturer's instruction. In brief, the treated cells were harvested and resuspended in Annexin V binding buffer containing Annexin V-FITC at room temperature. After 15 min incubation in the dark, the cells were washed twice with 200 ul of Annexin V binding buffer. Before FACS analysis, 0.25 ug/ml of propidium iodide (PI) was added. All flow cytometric analyses were performed on a BD-LSR flow cytometer (Becton Dickinson) using the Cell Quest software. The Annexin VI positive and/or PI positive cells are considered apoptotic cells."}, "SU.86.86 cells [2]": {"test_system": "SU.86.86 cells", "assay": "Binding to SU.86.86 pancreatic cancer cells by flow cytometry", "procedure": "Purified m5F1 and control antibodies at 1 ug/ml were added to 2×10^5 SU.86.86 cells and incubated for 1 hour at 4° C., washed twice with PBS containing 1% FBS, followed by incubation with 1 ug/ml of corresponding secondary antibodies (R-PE-conjugated goat F(ab′)2 anti-mouse IgG(H+L), Southern Biotech, Cat. No. 1032-09) at 4° C. for 1 hour. At the end of staining, samples were washed twice with PBS containing 1% FBS and analyzed by flow cytometer. All flow cytometric analyses were performed on a BD-LSR flow cytometer (Becton Dickinson) using the Cell Quest software.\n(§2) Binding experiments were carried out for antibodies c5F1.v15, c5F1.v16, and c5F1.v24. […] Apoptosis assay was carried out for antibody c5F1.v15."}, "SU.86.86 cells [3]": {"test_system": "SU.86.86 cells", "assay": "Apoptosis induction of SU.86.86 cells (6 h, Annexin V / PI)", "assay_type": "cell-based", "procedure": "as §1, with “2×10^5” for “1.5×10^5”, “SU86.86” for “COLO 205”, “12-well” for “96-well”, “m5F1” for “m5F1, c5F1-v0, c5F1-v15, c5F1-v16 and control antibodies”, “Control antibody at 32 ug/ml was included for background signal measurement.” for “The sample treated with m9E10 and h16C11A were used as isotype control.”\nas §2"}, "COLO 205 cells [4]": {"test_system": "COLO 205 cells", "assay": "Binding assay: flow cytometric binding of 5F1 antibodies to COLO 205 cells", "details": "for binding to Colo 205 (words): FIG. 3, 0.125 to 4 ug/ml", "procedure": "Purified m5F1, c5F1-v0, c5F1-v15 and c5F1-v16 antibodies at the concentration ranging from 0.125 to 4 ug/ml were added to 1.5×10^5 COLO 205 cells and incubated for 30 min at 4° C., washed for twice with PBS containing 2% FBS and 0.05% NaN3, followed by incubation with 1 μg/ml of corresponding secondary antibodies (R-PE-conjugated goat F(ab′)2 anti-mouse IgG(H+L), Southern Biotech, Cat. No. 1032-09; or R-PE-conjugated goat anti-human IgG, Southern Biotech, Cat. No. 2040-09) at 4° C. for 30 min. At the end of staining, samples were washed twice with PBS containing 2% FBS and 0.05% NaN3 and analyzed by flow cytometer. All flow cytometric analyses were performed on a BD-LSR flow cytometer (Becton Dickinson) using the Cell Quest software.\nPurified m5F1, c5F1-v0, c5F1-yl7, c5F1-v24 and c5F1-v25 antibodies at 1 ug/ml were added to 2×10^5 Colo 205 cells and incubated for 30 min at 4° C., washed for twice with PBS containing 1% FBS, followed by incubation with 1 ug/ml of corresponding secondary antibodies (R-PE-conjugated goat F(ab′)2 anti-mouse IgG(H+L), Southern Biotech, Cat. No. 1032-09; or R-PE-conjugated goat anti-human IgG, Southern Biotech, Cat. No. 2040-09) at 4° C. for 30 min. At the end of staining, samples were washed twice with PBS containing 1% FBS and 0.05% NaN3 and analyzed by flow cytometer. All flow cytometric analyses were performed on a BD-LSR flow cytometer (Becton Dickinson) using the Cell Quest software."}},
  "data": [
    {"molecule": "B1", "values": [
      {"measurement": "% of Annexin V and/or PI positive cells", "setting": "COLO 205 cells [1]; Table 7, 2 ug/ml", "result": 35, "unit": "%"},
      {"measurement": "% of Annexin V and/or PI positive cells", "setting": "COLO 205 cells [1]; Table 7, 4 ug/ml", "result": 53, "unit": "%"},
      {"measurement": "% of Annexin V and/or PI positive cells", "setting": "COLO 205 cells [1]; Table 7, 8 ug/ml", "result": 76, "unit": "%"},
      {"measurement": "% of Annexin V and/or PI positive cells", "setting": "COLO 205 cells [1]; Table 7, 16 ug/ml", "result": 92, "unit": "%"},
      {"measurement": "% of Annexin V and/or PI positive cells", "setting": "COLO 205 cells [1]; Table 7, 32 ug/ml", "result": 93, "unit": "%"},
      {"measurement": "% of Annexin V and/or PI positive cells", "setting": "COLO 205 cells [1]; Table 11 Exp. 1, 8 ug/ml", "result": 88, "unit": "%"},
      {"measurement": "% of Annexin V and/or PI positive cells", "setting": "COLO 205 cells [1]; Table 11 Exp. 1, 16 ug/ml", "result": 92, "unit": "%"},
      {"measurement": "% of Annexin V and/or PI positive cells", "setting": "COLO 205 cells [1]; Table 11 Exp. 1, 32 ug/ml", "result": 92, "unit": "%"},
      {"measurement": "% of Annexin V and/or PI positive cells", "setting": "COLO 205 cells [1]; Table 11 Exp. 2, 8 ug/ml", "result": 89, "unit": "%"},
      {"measurement": "% of Annexin V and/or PI positive cells", "setting": "COLO 205 cells [1]; Table 11 Exp. 2, 16 ug/ml", "result": 94, "unit": "%"},
      {"measurement": "% of Annexin V and/or PI positive cells", "setting": "COLO 205 cells [1]; Table 11 Exp. 2, 32 ug/ml", "result": 96, "unit": "%"},
      {"measurement": "binding to SU.86.86 cells", "setting": "SU.86.86 cells [2]", "result": "could bind"},
      {"measurement": "MFI", "setting": "SU.86.86 cells [2]; Table 14, antibody at 1 ug/ml", "result": 131},
      {"measurement": "% of Annexin V and/or PI positive cells", "setting": "SU.86.86 cells [3]; 2 ug/ml", "result": 60, "unit": "%"},
      {"measurement": "% of Annexin V and/or PI positive cells", "setting": "SU.86.86 cells [3]; 4 ug/ml", "result": 72, "unit": "%"},
      {"measurement": "% of Annexin V and/or PI positive cells", "setting": "SU.86.86 cells [3]; 8 ug/ml", "result": 78, "unit": "%"},
      {"measurement": "% of Annexin V and/or PI positive cells", "setting": "SU.86.86 cells [3]; 16 ug/ml", "result": 89, "unit": "%"},
      {"measurement": "% of Annexin V and/or PI positive cells", "setting": "SU.86.86 cells [3]; 32 ug/ml", "result": 91, "unit": "%"},
      {"measurement": "apoptosis induction in SU.86.86 cells", "setting": "SU.86.86 cells [3]; 2 to 32 ug/ml", "result": "induced apoptosis"},
      {"measurement": "binding to Colo 205 (words)", "setting": "COLO 205 cells [4]", "result": "significant binding"},
      {"measurement": "Median Fluorescence Intensity (MFI)", "setting": "COLO 205 cells [4]; Table 10, antibodies at 1 ug/ml", "result": 800}
    ]},
    {"molecule": "B2", "values": [
      {"measurement": "apoptosis-inducing activity in COLO 205", "setting": "COLO 205 cells [1]; 2 to 32 ug/ml, compared with m5F1", "result": "almost as efficient as m5F1"},
      {"measurement": "% of Annexin V and/or PI positive cells", "setting": "COLO 205 cells [1]; Table 7, 4 ug/ml", "result": 58, "unit": "%"},
      {"measurement": "% of Annexin V and/or PI positive cells", "setting": "COLO 205 cells [1]; Table 7, 8 ug/ml", "result": 78, "unit": "%"},
      {"measurement": "% of Annexin V and/or PI positive cells", "setting": "COLO 205 cells [1]; Table 7, 16 ug/ml", "result": 92, "unit": "%"},
      {"measurement": "% of Annexin V and/or PI positive cells", "setting": "COLO 205 cells [1]; Table 7, 32 ug/ml", "result": 96, "unit": "%"},
      {"measurement": "binding to SU.86.86 cells", "setting": "SU.86.86 cells [2]", "result": "significant binding"},
      {"measurement": "binding to Colo 205 (words)", "setting": "COLO 205 cells [4]", "result": "relatively less compared to c5F1"},
      {"measurement": "binding to Colo 205 (words)", "setting": "COLO 205 cells [4]; listed as c5F1v16", "result": "significant binding"}
    ]}
  ]
}
